Measured values published in the supplement of paper PMC7125110.
± gives the standard error. Fewer inactive variants are shown than the library holds.

B1: glmS ribozyme (parent)
chain: AUAAAAGCGCCAGAACUACAGAAAUGUAGUUGACGAGGAGGAGGUUUAUCGAAUUUUCGGCGGAUGCCUCCAAA

Assays:
Settings in all cases: with glucosamine-6-phosphate
glucosamine-6-phosphate [1] = variants of: B1; test: self-cleavage kobs at 160 uM GlcN6P; higher = faster cleavage; RNA array
Outline: (§1)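 Barcoded ribozyme variants on sequenced MiSeq chips were transcribed in situ by E. coli RNA polymerase and followed at 37 °C through a hybridised Cy3 probe. Glucosamine-6-phosphate at 40 μM to 10 mM in HEPES/KCl/Mg(OAc)2 buffer was flowed in, and tiles were imaged over ~14 h. Signals were normalised to baseline and to non-cleaving reference variants, and per-tile medians were fit to one- or two-exponential decays to give kobs. Weighted Michaelis–Menten fits across concentrations gave kcat and KM.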

glucosamine-6-phosphate [2] = variants of: B1; test: self-cleavage kobs at 2500 uM GlcN6P; higher = faster cleavage; RNA array
Outline: as §1

glucosamine-6-phosphate [3] = variants of: B1; test: self-cleavage kobs at 640 uM GlcN6P; higher = faster cleavage; RNA array
Outline: as §1

glucosamine-6-phosphate [4] = variants of: B1; test: self-cleavage kobs at 10000 uM GlcN6P; higher = faster cleavage; RNA array
Outline: as §1

glucosamine-6-phosphate [5] = variants of: B1; test: self-cleavage kobs at 40 uM GlcN6P; higher = faster cleavage; RNA array
Outline: as §1

Variant	self-cleavage kobs at 160 uM GlcN6P (glucosamine-6-phosphate [1])	self-cleavage kobs at 2500 uM GlcN6P (glucosamine-6-phosphate [2])	self-cleavage kobs at 640 uM GlcN6P (glucosamine-6-phosphate [3])	self-cleavage kobs at 10000 uM GlcN6P (glucosamine-6-phosphate [4])	self-cleavage kobs at 40 uM GlcN6P (glucosamine-6-phosphate [5])
A6C A36G C50U C67U	< 1e-05 s⁻¹	< 1e-05 s⁻¹			
A6G C16G G40A C50U C70G	< 1e-05 s⁻¹	< 1e-05 s⁻¹	< 1e-05 s⁻¹	< 1e-05 s⁻¹	
U57C G62U C70A					< 1e-05 s⁻¹
G63A			< 1e-05 s⁻¹	< 1e-05 s⁻¹	< 1e-05 s⁻¹
G63C	< 1e-05 s⁻¹	< 1e-05 s⁻¹	< 1e-05 s⁻¹	< 1e-05 s⁻¹	< 1e-05 s⁻¹
A6C G37U C50U G60C	< 1e-05 s⁻¹		< 1e-05 s⁻¹		
G62C G63A	< 1e-05 s⁻¹	< 1e-05 s⁻¹	< 1e-05 s⁻¹		< 1e-05 s⁻¹
G7U A52C	< 1e-05 s⁻¹		< 1e-05 s⁻¹	< 1e-05 s⁻¹	
G7C U31G	< 1e-05 s⁻¹	< 1e-05 s⁻¹		< 1e-05 s⁻¹	
A6G A36G U56A	< 1e-05 s⁻¹	< 1e-05 s⁻¹	< 1e-05 s⁻¹		
A6G G32U G40A C61G	< 1e-05 s⁻¹	< 1e-05 s⁻¹	< 1e-05 s⁻¹		
G7C G9U A36G C68A	< 1e-05 s⁻¹	< 1e-05 s⁻¹	< 1e-05 s⁻¹		
U55A G60C			< 1e-05 s⁻¹		< 1e-05 s⁻¹
G7U C8U A12G G51C C61U	< 1e-05 s⁻¹		< 1e-05 s⁻¹		
G62C C67G		< 1e-05 s⁻¹	< 1e-05 s⁻¹	< 1e-05 s⁻¹	< 1e-05 s⁻¹
A6U A15C U55A G66U	< 1e-05 s⁻¹	< 1e-05 s⁻¹	< 1e-05 s⁻¹		
U55G U57G			5.98e-05 ± 2.6e-05 s⁻¹	5.12e-05 ± 1.3e-05 s⁻¹	< 1e-05 s⁻¹
G7C C10G C70U	< 1e-05 s⁻¹			< 1e-05 s⁻¹	
C68G		9.11e-05 ± 1.8e-06 s⁻¹	0.000523 ± 0.00014 s⁻¹	0.000473 ± 9.9e-05 s⁻¹	1.18e-05 ± 2.8e-06 s⁻¹
C68A	5.51e-05 ± 1.8e-05 s⁻¹	0.000102 ± 4.6e-05 s⁻¹	0.000539 ± 0.00015 s⁻¹	0.000447 ± 7.5e-05 s⁻¹	< 1e-05 s⁻¹
G60U U65A	< 1e-05 s⁻¹	< 1e-05 s⁻¹	< 1e-05 s⁻¹	< 1e-05 s⁻¹	< 1e-05 s⁻¹
G7A G37A	< 1e-05 s⁻¹		< 1e-05 s⁻¹	< 1e-05 s⁻¹	
A6G G40C C50G	< 1e-05 s⁻¹	< 1e-05 s⁻¹			
U57C G59U C61U				< 1e-05 s⁻¹	< 1e-05 s⁻¹
C58A G59U G60U				< 1e-05 s⁻¹	< 1e-05 s⁻¹

Variant	self-cleavage kobs at 160 uM GlcN6P (glucosamine-6-phosphate [1])	self-cleavage kobs at 2500 uM GlcN6P (glucosamine-6-phosphate [2])	self-cleavage kobs at 640 uM GlcN6P (glucosamine-6-phosphate [3])	self-cleavage kobs at 10000 uM GlcN6P (glucosamine-6-phosphate [4])	self-cleavage kobs at 40 uM GlcN6P (glucosamine-6-phosphate [5])
A6U G38U G60C	< 1e-05 s⁻¹				
G59A A64U		< 1e-05 s⁻¹		< 1e-05 s⁻¹	< 1e-05 s⁻¹
G7A U30G	< 1e-05 s⁻¹	< 1e-05 s⁻¹			
A6G A36G G44U C61U	< 1e-05 s⁻¹	< 1e-05 s⁻¹	< 1e-05 s⁻¹		
A6U A48C U57G	< 1e-05 s⁻¹				
A6U C11A A12U C34G C50U U55G	< 1e-05 s⁻¹	< 1e-05 s⁻¹	< 1e-05 s⁻¹		
U55A A64U C68U					< 1e-05 s⁻¹
A6C C8G G35C C58U C67G	< 1e-05 s⁻¹	< 1e-05 s⁻¹			
C58A G63U U69C					< 1e-05 s⁻¹
A6C U49G G62A A64G	< 1e-05 s⁻¹	< 1e-05 s⁻¹	< 1e-05 s⁻¹		
G7A U31C	< 1e-05 s⁻¹		< 1e-05 s⁻¹		
G7C C50U G51U C70A	< 1e-05 s⁻¹	< 1e-05 s⁻¹			
G7A U30C A64C	< 1e-05 s⁻¹	< 1e-05 s⁻¹	< 1e-05 s⁻¹		
A6C A12C A36C G43A G51U C70G	< 1e-05 s⁻¹		< 1e-05 s⁻¹		
C58U G62A	< 1e-05 s⁻¹	< 1e-05 s⁻¹	< 1e-05 s⁻¹	< 1e-05 s⁻¹	< 1e-05 s⁻¹
A6U C11A	< 1e-05 s⁻¹	< 1e-05 s⁻¹	< 1e-05 s⁻¹		
U55G C71G		0.000704 ± 0.00019 s⁻¹		0.00121 ± 0.00035 s⁻¹	7.4e-05 ± 1.7e-05 s⁻¹
A6U A14C G51A	< 1e-05 s⁻¹		< 1e-05 s⁻¹		
A6G C8G U31A G32U	< 1e-05 s⁻¹				
A6U C10G C68U	< 1e-05 s⁻¹				
A6C C8U C10G A12U G38U	< 1e-05 s⁻¹	< 1e-05 s⁻¹	< 1e-05 s⁻¹		
G60U C70G				< 1e-05 s⁻¹	< 1e-05 s⁻¹
A6U U65G C70U	< 1e-05 s⁻¹		< 1e-05 s⁻¹		
U55A C67G	0.000104 ± 2.1e-05 s⁻¹	0.00013 ± 2e-05 s⁻¹	0.000179 ± 2.8e-05 s⁻¹	0.00061 ± 0.00014 s⁻¹	0.000126 ± 3.4e-05 s⁻¹
